Laboratory results published in IntAct's records for PubMed 31515488.

B1: Arginine/serine-rich protein 1 (Homo sapiens), Q9BUV0 (parent)
chain: MSNYVNDMWPGSPQEKDSPSTSRSGGSSRLSSRSRSRSFSRSSRSHSRVSSRFSSRSRRSKSRSRSRRRHQRKYRRYSRSYSRSRSRSRSRRYRERRYGFTRRYYRSPSRYRSRSRSRSRSRGRSYCGRAYAIARGQRYYGFGRTVYPEEHSRWRDRSRTRSRSRTPFRLSEKDRMELLEIAKTNAAKALGTTNIDLPASLRTVPSAKETSRGIGVSSNGAKPELSEKVTEDGTRNPNEKPTQQRSIAFSSNNSVAKPIQKSAKAATEEASSRSPKIDQKKSPYGLWIPI
B2: Ras-related protein Rab-5C (Homo sapiens), P51148 (parent)
chain: MAGRGGAARPNGPAAGNKICQFKLVLLGESAVGKSSLVLRFVKGQFHEYQESTIGAAFLTQTVCLDDTTVKFEIWDTAGQERYHSLAPMYYRGAQAAIVVYDITNTDTFARAKNWVKELQRQASPNIVIALAGNKADLASKRAVEFQEAQAYADDNSLLFMETSAKTAMNVNEIFMAIAKKLPKNEPQNATGAPGRNRGVDLQENNPASRSQCCSN
partner: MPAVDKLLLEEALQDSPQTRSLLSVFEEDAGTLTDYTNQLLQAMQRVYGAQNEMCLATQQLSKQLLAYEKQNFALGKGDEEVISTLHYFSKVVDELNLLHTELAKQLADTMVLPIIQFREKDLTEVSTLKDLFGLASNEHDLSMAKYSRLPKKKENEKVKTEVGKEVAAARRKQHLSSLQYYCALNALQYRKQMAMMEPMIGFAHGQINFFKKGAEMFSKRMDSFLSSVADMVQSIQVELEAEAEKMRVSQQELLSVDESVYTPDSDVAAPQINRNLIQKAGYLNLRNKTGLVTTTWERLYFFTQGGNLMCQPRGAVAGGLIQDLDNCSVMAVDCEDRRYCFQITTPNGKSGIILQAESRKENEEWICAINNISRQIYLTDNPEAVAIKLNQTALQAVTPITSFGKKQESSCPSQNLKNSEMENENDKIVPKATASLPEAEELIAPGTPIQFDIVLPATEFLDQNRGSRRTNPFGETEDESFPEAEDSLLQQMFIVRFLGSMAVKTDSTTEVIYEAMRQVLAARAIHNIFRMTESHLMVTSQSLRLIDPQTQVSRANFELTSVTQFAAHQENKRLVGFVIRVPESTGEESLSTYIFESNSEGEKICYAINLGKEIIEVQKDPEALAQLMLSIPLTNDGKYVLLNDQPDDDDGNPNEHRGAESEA
B3: Endoplasmic reticulum resident protein 27 (Homo sapiens), Q96DN0 (parent)
chain: MEAAPSRFMFLLFLLTCELAAEVAAEVEKSSDGPGAAQEPTWLTDVPAAMEFIAATEVAVIGFFQDLEIPAVPILHSMVQKFPGVSFGISTDSEVLTHYNITGNTICLFRLVDNEQLNLEDEDIESIDATKLSRFIEINSLHMVTEYNPVTVIGLFNSVIQIHLLLIMNKASPEYEENMHRYQKAAKLFQGKILFILVDSGMKENGKVISFFKLKESQLPALAIYQTLDDEWDTLPTAEVSVEHVQNFCDGFLSGKLLKENRESEGKTPKVEL
B4: Amyloid beta A4 precursor protein-binding family B member 1-interacting protein (Homo sapiens), Q7Z5R6-2 (parent)
chain: MGESSEDIDQMFSTLLGEMDLLTQSLGVDTLPPPDPNPPRAEFNYSVGFKDLNESLNALEDQDLDALMADLVADISEAEQRTIQAQKESLQNQHHSASLQASIFSGAASLGYGTNVAATGISQYEDDLPPPPADPVLDLPLPPPPPEPLSQVSMWDQRWQDHQPLLPITDVP
B5: Microtubule-associated tumor suppressor candidate 2 (Homo sapiens), Q5JR59-3 (parent)
chain: MGHCCCKPYNCLQCLDKTNESALVKEKELSIELANIRDEVAFHTAKCEKLQKEKEELERRFEDEVKRLGWQQQAELQELEERLQLQFEAEMARLQEEHGDQLLSIRCQHQEQVEDLTASHDAALLEMENNHTVAITILQDDHDHKVQELMSTHELEKKELEENFEKLRLSLQDQVDTLTFQSQSLRDRARRFEEALRKNTEEQLEIALAPYQHLEEDMKSLKQVLEMKNQQIHEQEKKILELEKLAEKNIILEEKIQVLQQQNEDLKARIDQNTVVTRQLSEENANLQEYVEKETQEKKRLSRTNEELLWKLQTGDPTSPIKLSPTSPVYRGSSSGPSSPARVSTTPR
partner: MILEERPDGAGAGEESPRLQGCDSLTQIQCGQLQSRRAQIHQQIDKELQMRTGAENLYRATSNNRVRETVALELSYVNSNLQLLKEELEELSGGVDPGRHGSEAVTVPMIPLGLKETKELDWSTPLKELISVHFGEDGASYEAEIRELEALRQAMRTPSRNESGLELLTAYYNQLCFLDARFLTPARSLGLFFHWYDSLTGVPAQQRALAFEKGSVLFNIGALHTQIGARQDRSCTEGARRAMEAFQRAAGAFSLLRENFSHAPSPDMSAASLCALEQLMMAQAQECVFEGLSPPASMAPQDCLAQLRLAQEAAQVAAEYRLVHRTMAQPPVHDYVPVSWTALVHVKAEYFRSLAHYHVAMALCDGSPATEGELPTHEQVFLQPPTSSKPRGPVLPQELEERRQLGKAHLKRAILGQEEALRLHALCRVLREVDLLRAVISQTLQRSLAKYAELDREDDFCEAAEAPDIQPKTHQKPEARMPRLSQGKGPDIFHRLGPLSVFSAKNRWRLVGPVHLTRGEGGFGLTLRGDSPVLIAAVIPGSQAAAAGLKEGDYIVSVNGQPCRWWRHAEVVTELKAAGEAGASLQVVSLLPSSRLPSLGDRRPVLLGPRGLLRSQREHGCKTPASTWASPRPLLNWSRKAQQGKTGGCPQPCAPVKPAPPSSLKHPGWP
B6: Coiled-coil domain-containing protein 92 (Homo sapiens), Q53HC0 (parent)
chain: MTSPHFSSYDEGPLDVSMAATNLENQLHSAQKNLLFLQREHASTLKGLHSEIRRLQQHCTDLTYELTVKSSEQTGDGTSKSSELKKRCEELEAQLKVKENENAELLKELEQKNAMITVLENTIKEREKKYLEELKAKSHKLTLLSSELEQRASTIAYLTSQLHAAKKKLMSSSGTSDASPSGSPVLASYKPAPPKDKLPETPRRRMKKSLSAPLHPEFEEVYRFGAESRKLLLREPVDAMPDPTPFLLARESAEVHLIKERPLVIPPIASDRSGEQHSPAREKPHKAHVGVAHRIHHATPPQAQPEVKTLAVDQVNGGKVVRKHSGTDRTV
partner: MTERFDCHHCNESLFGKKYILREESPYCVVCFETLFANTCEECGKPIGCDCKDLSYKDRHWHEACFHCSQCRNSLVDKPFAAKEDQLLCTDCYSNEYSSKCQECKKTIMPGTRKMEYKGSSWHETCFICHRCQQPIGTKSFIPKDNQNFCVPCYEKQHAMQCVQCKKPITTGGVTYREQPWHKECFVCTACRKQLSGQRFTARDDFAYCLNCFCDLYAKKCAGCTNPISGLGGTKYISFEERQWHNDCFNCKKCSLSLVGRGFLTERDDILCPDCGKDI

Variants of: B1
Settings: with clk2_human CLK2, P49760
Sequence of clk2_human CLK2, P49760 (P49760 whole entry, looked up): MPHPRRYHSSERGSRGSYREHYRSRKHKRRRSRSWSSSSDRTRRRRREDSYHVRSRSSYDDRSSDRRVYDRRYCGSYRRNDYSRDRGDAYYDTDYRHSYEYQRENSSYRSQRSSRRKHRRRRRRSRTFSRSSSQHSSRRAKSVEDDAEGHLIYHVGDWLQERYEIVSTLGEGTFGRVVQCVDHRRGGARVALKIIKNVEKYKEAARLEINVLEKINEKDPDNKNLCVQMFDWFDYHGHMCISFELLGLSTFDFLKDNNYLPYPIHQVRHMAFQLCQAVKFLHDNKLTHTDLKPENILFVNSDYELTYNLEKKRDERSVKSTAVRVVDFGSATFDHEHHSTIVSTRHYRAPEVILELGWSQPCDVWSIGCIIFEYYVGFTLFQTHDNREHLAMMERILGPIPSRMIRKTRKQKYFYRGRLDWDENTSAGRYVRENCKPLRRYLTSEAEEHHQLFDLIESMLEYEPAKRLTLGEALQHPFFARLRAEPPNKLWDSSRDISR

effect of a mutation on the interaction	Variant
with no effect	Y147H

Variants of: B1
Settings: with clk3_human CLK3, P49761
Sequence of clk3_human CLK3, P49761 (P49761 whole entry, looked up): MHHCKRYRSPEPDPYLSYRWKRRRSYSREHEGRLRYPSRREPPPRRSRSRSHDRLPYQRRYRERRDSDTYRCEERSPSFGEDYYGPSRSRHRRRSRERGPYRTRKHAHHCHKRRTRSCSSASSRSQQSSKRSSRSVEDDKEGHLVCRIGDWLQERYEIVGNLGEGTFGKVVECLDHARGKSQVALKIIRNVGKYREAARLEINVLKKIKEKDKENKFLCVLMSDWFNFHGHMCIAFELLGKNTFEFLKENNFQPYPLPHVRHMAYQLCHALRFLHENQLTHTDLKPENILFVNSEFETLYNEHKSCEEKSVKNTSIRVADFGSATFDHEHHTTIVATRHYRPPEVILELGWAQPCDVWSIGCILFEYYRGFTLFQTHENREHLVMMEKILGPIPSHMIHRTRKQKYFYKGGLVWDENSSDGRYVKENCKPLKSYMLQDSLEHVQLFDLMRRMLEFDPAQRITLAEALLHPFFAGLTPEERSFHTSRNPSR

effect of a mutation on the interaction	Variant
with no effect	Y147H

Variants of: B2
Settings: with dp13b_human APPL2, Q8NEU8

effect of a mutation on the interaction	Variant
with no effect	N206S
with no effect	R196Q

Variants of: B2
Settings: with dp13b_human APPL2, Q8NEU8
Remark: another data set of the same source

effect of a mutation on the interaction	Variant
with no effect	G93R

Variants of: B3
Settings: with ef1d_human EEF1D

effect of a mutation on the interaction	Variant
with no effect	E122K

Variants of: B3
Settings: with ubql1_human UBQLN1, Q9UMX0
Sequence of ubql1_human UBQLN1, Q9UMX0 (Q9UMX0 whole entry): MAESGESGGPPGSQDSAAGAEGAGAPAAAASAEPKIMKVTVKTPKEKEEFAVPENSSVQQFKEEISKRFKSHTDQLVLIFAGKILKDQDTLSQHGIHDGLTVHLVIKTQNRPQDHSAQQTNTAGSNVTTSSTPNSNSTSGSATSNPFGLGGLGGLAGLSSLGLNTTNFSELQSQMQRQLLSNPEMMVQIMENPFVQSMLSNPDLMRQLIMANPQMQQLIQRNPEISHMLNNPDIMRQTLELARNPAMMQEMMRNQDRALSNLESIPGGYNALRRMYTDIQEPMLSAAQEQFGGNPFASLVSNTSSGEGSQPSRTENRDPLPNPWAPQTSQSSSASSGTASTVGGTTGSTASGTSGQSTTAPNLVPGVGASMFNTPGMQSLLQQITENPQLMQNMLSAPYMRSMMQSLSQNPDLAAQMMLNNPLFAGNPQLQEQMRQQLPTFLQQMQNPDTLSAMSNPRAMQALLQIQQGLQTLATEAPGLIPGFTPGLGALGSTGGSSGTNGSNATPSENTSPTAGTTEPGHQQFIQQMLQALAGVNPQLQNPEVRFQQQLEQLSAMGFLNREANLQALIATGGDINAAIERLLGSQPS

effect of a mutation on the interaction	Variant
with no effect	E122K

Variants of: B3
Settings: with sgta_human SGTA

effect of a mutation on the interaction	Variant
with no effect	E122K

Variants of: B4
Settings: with dpy30_human DPY30, Q9C005
Sequence of dpy30_human DPY30, Q9C005 (Q9C005 whole entry): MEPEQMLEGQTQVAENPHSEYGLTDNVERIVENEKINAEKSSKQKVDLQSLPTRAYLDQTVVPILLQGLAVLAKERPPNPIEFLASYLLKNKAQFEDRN

effect of a mutation on the interaction	Variant
with no effect	D134N

Variants of: B5
Settings: with rhpn1_human RHPN1, Q8TCX5

effect of a mutation on the interaction	Variant
with no effect	A89V

Variants of: B6
Settings: with fhl2_human FHL2, Q14192

effect of a mutation on the interaction	Variant
with no effect	S70C
